Assay results taken from article PMC11077089, “Molecular basis of A. thaliana KEOPS complex in biosynthesizing tRNA t6A”.

How the values were obtained:
Test in all cases: EMSA; 1:5 RNA:protein; MST: 20 mM PBS pH 7.5, 300 mM NaCl, 0.05% Tween 20, 25 C, 50 nM RNA; EMSA: 20 mM Tris-HCl pH 7.5, 300 mM NaCl, 5 mM b-mercaptoethanol, 20% glycerol, agarose gel in Tris-glycine pH 8.0 (8.5 for FAM-RNA), 4 C
Conditions in all cases: protein: recombinant;recombinant;recombinant;recombinant; tags: ;none (6His on partner CGI121);6His (C-term);6His (C-term); chain copies: 2;2;2;2; label: 5' 6-FAM; tRNA cloverleaf
[1] = biological target: T1, KAE1 I17F;BUD32;CGI121;PCC1 (Arabidopsis thaliana;Arabidopsis …, UniProt O49653;Q94K14;Q6NMZ4;Q8GWD7 1-353;1-226;1-172;1-96, I17F|||)
T1 sequence 1: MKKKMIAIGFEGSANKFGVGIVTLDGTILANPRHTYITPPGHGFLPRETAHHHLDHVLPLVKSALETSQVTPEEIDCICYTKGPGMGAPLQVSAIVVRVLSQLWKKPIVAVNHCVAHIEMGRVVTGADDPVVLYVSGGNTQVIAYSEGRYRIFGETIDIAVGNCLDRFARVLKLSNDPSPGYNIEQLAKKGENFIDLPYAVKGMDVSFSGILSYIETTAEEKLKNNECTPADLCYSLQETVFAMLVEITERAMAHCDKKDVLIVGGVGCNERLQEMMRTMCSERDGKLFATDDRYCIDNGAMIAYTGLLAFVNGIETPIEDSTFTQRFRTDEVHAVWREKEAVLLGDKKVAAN
T1 sequence 2: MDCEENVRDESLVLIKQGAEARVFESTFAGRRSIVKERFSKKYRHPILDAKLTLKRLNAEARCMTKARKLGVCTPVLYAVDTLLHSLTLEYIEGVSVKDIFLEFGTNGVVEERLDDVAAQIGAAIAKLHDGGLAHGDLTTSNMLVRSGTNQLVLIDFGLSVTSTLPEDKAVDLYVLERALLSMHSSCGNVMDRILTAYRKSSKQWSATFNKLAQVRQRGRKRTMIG
T1 sequence 3: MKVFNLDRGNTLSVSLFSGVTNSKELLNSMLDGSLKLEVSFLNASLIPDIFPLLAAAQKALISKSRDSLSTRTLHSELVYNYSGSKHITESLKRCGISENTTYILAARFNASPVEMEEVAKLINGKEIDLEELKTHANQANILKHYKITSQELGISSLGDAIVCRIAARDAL
T1 sequence 4: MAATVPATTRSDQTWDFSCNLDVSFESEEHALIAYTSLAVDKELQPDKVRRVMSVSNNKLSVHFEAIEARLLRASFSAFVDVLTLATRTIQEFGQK

[2] = biological target: T2, KAE1 D298R;BUD32;CGI121;PCC1 (Arabidopsis thaliana;Arabidopsis …, UniProt O49653;Q94K14;Q6NMZ4;Q8GWD7 1-353;1-226;1-172;1-96, D298R|||)
T2 sequence 1: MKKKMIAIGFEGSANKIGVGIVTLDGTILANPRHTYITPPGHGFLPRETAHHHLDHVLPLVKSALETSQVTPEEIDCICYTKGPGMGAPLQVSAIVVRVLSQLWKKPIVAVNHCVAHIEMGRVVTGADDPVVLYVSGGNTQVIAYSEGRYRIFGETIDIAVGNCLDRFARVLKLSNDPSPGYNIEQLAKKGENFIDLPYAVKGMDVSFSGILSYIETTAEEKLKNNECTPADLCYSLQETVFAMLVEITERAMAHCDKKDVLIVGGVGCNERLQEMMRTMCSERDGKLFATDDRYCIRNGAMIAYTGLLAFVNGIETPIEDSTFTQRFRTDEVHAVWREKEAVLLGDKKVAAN
T2 sequence 2: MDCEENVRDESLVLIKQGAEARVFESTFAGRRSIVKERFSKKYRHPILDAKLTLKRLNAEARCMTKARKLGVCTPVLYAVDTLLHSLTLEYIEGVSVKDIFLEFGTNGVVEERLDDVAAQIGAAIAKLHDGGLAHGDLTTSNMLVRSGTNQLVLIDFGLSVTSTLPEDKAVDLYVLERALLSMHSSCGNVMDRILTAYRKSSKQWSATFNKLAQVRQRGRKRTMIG
T2 sequence 3: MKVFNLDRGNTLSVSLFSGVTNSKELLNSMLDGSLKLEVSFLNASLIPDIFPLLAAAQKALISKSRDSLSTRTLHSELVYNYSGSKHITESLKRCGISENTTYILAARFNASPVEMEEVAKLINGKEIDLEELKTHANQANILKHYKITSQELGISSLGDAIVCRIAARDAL
T2 sequence 4: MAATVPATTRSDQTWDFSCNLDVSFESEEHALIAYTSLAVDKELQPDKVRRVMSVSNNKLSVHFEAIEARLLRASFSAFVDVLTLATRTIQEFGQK

[3] = biological target: T3, KAE1 K202R;BUD32;CGI121;PCC1 (Arabidopsis thaliana;Arabidopsis …, UniProt O49653;Q94K14;Q6NMZ4;Q8GWD7 1-353;1-226;1-172;1-96, K202R|||)
T3 sequence 1: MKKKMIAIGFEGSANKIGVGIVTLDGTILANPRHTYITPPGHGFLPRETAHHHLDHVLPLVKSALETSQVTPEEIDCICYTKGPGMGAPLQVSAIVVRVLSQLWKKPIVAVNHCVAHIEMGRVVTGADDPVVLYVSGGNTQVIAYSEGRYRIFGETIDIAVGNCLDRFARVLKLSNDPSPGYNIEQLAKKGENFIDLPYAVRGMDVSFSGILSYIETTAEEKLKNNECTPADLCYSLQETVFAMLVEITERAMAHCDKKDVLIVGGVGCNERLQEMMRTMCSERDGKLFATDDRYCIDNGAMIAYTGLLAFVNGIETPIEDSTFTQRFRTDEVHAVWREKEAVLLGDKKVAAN
T3 sequence 2: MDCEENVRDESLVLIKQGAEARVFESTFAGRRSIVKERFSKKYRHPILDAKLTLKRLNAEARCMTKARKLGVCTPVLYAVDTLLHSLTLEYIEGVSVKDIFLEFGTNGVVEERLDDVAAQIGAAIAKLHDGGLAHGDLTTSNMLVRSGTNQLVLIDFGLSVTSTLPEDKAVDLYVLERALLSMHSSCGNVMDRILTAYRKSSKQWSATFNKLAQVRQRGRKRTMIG
T3 sequence 3: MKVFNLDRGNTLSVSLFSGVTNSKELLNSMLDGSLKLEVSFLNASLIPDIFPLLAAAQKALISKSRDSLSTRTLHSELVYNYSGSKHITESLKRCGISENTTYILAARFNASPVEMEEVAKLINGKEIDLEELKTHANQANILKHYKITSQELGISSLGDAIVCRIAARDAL
T3 sequence 4: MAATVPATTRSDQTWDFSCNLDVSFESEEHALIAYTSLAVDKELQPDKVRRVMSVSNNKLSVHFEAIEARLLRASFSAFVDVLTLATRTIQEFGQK

Measured: binding result

B1: 5'-6FAM-tRNAArgCCU (structured_RNA)
RNA: GCGCCUGUAGCUCAGUGGAUAGAGCGUCUGUUUCCUAAGCAGAAGGUCGUAGGUUCGACCCCUACCUGGCGCGCCA
binds: all assays above
